This data set can be described thus: self-splicing fitness, log relative to wild type (ln ratio); higher = more splicing; Tetrahymena group I intron in knt gene, E. coli kanamycin selection, DiMSum; sequences stand for … in CUCUCU…GGAGGGAAAAGUUAUCAGGCAUGCACCUGGUAGCUAGUCUUUAAACCAAUAGAUUGCAUCGGUUUAAAAGGCAAGACCGUCAAAUUGCGGGAAAGGGGUCAACAGCCGUUCAGUACCAAGUCUCAGGGGAAACUUUGAGAUGGCCUUGCAAAGGGUAUGGUAAUAAGCUGACGGACAUGGUCCUAACCACGCAGCCAAGUCCUAAGUCAACAGAUCUUCUGUUGAUAUGGAUGCAGUUCACAGACUAAAUGUCGGUCGGGGAAGAUGUAUUCUUCUCAUAAGAUAUAGUCGGACCUCUCCUUAAUGGGAGCUAGCGGAUGAAGUGAUGCAACACUGGAGCCGCUGGGAACUAAUUUGUAUGCGAAAGUAUAUUGAUUAGUUUUGGAGUACUCGUGGUCG
Put shortly: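 A randomised library covering all eight P1ex-region intron nucleotides was built with the intron in the knt kanamycin-resistance gene on pET-22b(+) and held in E. coli BL21(DE3). Cells were grown overnight at 37°C or 30°C on LB agar, with or without 25 μg/mL kanamycin, plus 100 μg/mL carbenicillin, 50 μM IPTG and 0.2% rhamnose, and pooled colonies were amplicon-sequenced on an Illumina HiSeq 2500. DiMSum fitness is the error-weighted combination of wild-type-normalised replicate fold changes, kanamycin versus none.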

± gives the uncertainty stated by the source.

38 sequences from the supplement of paper PMC7877785 can be followed below.

As for AGGAAGCAAUAUUACGGGAA, the “self-splicing fitness (ln)” value by setting is: (30 °C) -2.67 ± 0.25; (37 °C) -2.08 ± 0.26.
For AGGAAGCAAUAUUACGGGGA, the “self-splicing fitness (ln)” value is -2.97 ± 0.2 (30 °C) and -2.38 ± 0.16 (37 °C).
On the same counts, the results for AGGAAGCAAUAUUACGGUAC are -3.99 ± 0.36 and -3.03 ± 0.25.
Regarding AGGAAGCAAUAUUACGGUCC, the “self-splicing fitness (ln)” value runs as follows: (30 °C) -1.54 ± 0.23; (37 °C) -1.05 ± 0.4.
For AGGAAGCAAUAUUACGGUCU, the “self-splicing fitness (ln)” value is -0.784 ± 0.079 (30 °C) and 0.265 ± 0.11 (37 °C).
On the same counts, the results for AGGAAGCAAUAUUACGGUGC are -3.36 ± 0.21 and -2.51 ± 0.2.
The like results for AGGAAGCAAUAUUACGGUUA were, in that order, -0.766 ± 0.1 and -0.654 ± 0.1.
The like results for AGGAAGCAAUAUUACGUAAC were, in that order, -3.65 ± 0.3 and -2.18 ± 0.42.
Consider AGGAAGCAAUAUUACGUAAG, for which the “self-splicing fitness (ln)” value was -1.39 ± 0.11 (30 °C) and -2.01 ± 0.17 (37 °C).
On the same counts, the results for AGGAAGCAAUAUUACGUCUC are -2.91 ± 0.18 and -1.48 ± 0.21.
As for AGGAAGCAAUAUUACGUGCG, the “self-splicing fitness (ln)” value (30 °C) was -1.01 ± 0.1 and the “self-splicing fitness (ln)” value (37 °C) was -1.04 ± 0.13.
Turning to AGGAAGCAAUAUUACGUUAG, the “self-splicing fitness (ln)” value reads like this: (30 °C) -2.95 ± 0.21; (37 °C) -3.24 ± 0.29.
With AGGAAGCAAUAUUACGUUGU, the “self-splicing fitness (ln)” value (30 °C) was -3.98 ± 0.18 and the “self-splicing fitness (ln)” value (37 °C) was -2.82 ± 0.15.
The like results for AGGCAGCAAUAUUACGACAC were, in that order, -1.75 ± 0.18 and -0.221 ± 0.18.
On the same counts, the results for AGGCAGCAAUAUUACGAGAA are -3.3 ± 0.41 and -2.09 ± 0.36.
For AGGCAGCAAUAUUACGAUGU, the “self-splicing fitness (ln)” value was -2.41 ± 0.094 (30 °C) and -0.487 ± 0.1 (37 °C).
In the case of AGGCAGCAAUAUUACGCAAC, the “self-splicing fitness (ln)” value was -0.42 ± 0.21 (30 °C) and -1.41 ± 0.34 (37 °C).
As for AGGCAGCAAUAUUACGCACC, the “self-splicing fitness (ln)” value reads like this: (30 °C) -0.268 ± 0.1; (37 °C) -0.0601 ± 0.15.
Regarding AGGCAGCAAUAUUACGCACG, the “self-splicing fitness (ln)” value is, setting by setting: (30 °C) -0.754 ± 0.069; (37 °C) -0.342 ± 0.11.
The like results for AGGCAGCAAUAUUACGCAGU were, in that order, -3.36 ± 0.2 and -1.55 ± 0.19.
The like results for AGGCAGCAAUAUUACGCCAU were, in that order, -2.27 ± 0.25 and -1.39 ± 0.3.
The like results for AGGCAGCAAUAUUACGCUAG were, in that order, -3.53 ± 0.25 and -3.04 ± 0.27.
As for AGGCAGCAAUAUUACGCUCG, the “self-splicing fitness (ln)” value is, setting by setting: (30 °C) -1.75 ± 0.091; (37 °C) -0.442 ± 0.12.
On the same counts, the results for AGGCAGCAAUAUUACGGAUG are -2.3 ± 0.1 and -2.58 ± 0.21.
The like results for AGGCAGCAAUAUUACGGGCG were, in that order, -0.287 ± 0.097 and -0.172 ± 0.11.
For AGGCAGCAAUAUUACGGGCU, the “self-splicing fitness (ln)” value by setting is: (30 °C) -0.928 ± 0.071; (37 °C) -1.51 ± 0.11.
On the same counts, the results for AGGCAGCAAUAUUACGGGUG are -3.64 ± 0.15 and -2.29 ± 0.12.
The like results for AGGCAGCAAUAUUACGGUUG were, in that order, -3.28 ± 0.18 and -1.46 ± 0.17.
On the same counts, the results for AGGCAGCAAUAUUACGGUUU are -0.696 ± 0.043 and -0.371 ± 0.062.
For AGGCAGCAAUAUUACGUACG, the “self-splicing fitness (ln)” value is, setting by setting: (30 °C) -1.22 ± 0.074; (37 °C) 0.303 ± 0.1.
On the same counts, the results for AGGCAGCAAUAUUACGUUGG are -3.79 ± 0.2 and -1.45 ± 0.11.
The like results for AGGCAGCAAUAUUACGUUUA were, in that order, -1.33 ± 0.072 and -0.496 ± 0.08.
In the case of AGGGAGCAAUAUUACGAAUG, the “self-splicing fitness (ln)” value runs as follows: (30 °C) -3.27 ± 0.3; (37 °C) -2.38 ± 0.39.
On the same counts, the results for AGGGAGCAAUAUUACGACCG are -1.92 ± 0.35 and -0.586 ± 0.33.
The like results for AGGGAGCAAUAUUACGACGU were, in that order, -2.14 ± 0.23 and -1.63 ± 0.19.
On to AGGGAGCAAUAUUACGAUAU, for which, for the setting “37 °C”, the “self-splicing fitness (ln)” value is -1.88 ± 0.47.
For the sequence AGGGAGCAAUAUUACGAUCA, the “self-splicing fitness (ln)” value (37 °C) was -1.5 ± 0.4.
The same measure, in the same setting: then AGGGAGCAAUAUUACGCAGA, with -3.27 ± 0.43.
